# Where two headings read alike, the source gives them in different places.
# T1: human TIGIT protein (human, UniProt Q495A1 22-141, limits assumed)
# T1 construct: Recombinant protein (Genentech) used in ELISA screening and as SPR analyte; also called TIGIT antigen
# T1 sequence: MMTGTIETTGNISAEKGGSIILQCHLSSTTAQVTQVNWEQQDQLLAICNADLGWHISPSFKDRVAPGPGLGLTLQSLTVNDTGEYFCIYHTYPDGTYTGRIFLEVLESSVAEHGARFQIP
# T2: hTIGIT mutant H76A (human, UniProt Q495A1)
# T2 sequence (TIGIT, looked up): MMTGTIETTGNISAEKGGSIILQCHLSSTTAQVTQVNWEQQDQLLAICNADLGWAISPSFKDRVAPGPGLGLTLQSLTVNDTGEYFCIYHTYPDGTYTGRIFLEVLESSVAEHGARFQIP
# Legend:
# [1] = molecular target: T3, cynomolgus TIGIT on CHO cells (cynomolgus monkey, UniProt A0A7N9I9V4 89-312); assay: FACS on CHO cells expressing cyno TIGIT, FITC anti-hIgG detection
# T3 construct: whole, on cells; also called CHO-cyTIGIT; cyTIGIT
# T3 sequence (A0A7N9I9V4 entry or part of it): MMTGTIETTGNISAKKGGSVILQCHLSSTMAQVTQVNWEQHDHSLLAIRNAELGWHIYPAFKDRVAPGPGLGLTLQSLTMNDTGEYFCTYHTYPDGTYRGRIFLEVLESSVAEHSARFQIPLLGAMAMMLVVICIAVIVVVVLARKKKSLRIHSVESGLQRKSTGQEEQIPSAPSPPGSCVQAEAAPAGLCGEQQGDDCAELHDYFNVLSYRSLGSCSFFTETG
# Experimental: Additional in vitro binding studies of the OMT- and SD-derived anti-TIGIT antibody clones were conducted. The OMT- and SD-derived anti-TIGIT clones were tested for binding to human and cyno TIGIT expressed on the surface of CHO cells by FACS analysis. CHO cells were transfected with full-length human TIGIT (CHO-hTIGIT) or cynomologous TIGIT (CHO-cyTIGIT). The TIGIT-expressing CHO cells were incubated with each anti-TIGIT antibody at the indicated concentrations and then detected via a FITC-labeled anti-hIgG antibody (see FIG. 1A) using standard methods. The results, shown in Table 6 and FIGS. 1B-1E, corroborate the results from the BIACORE™ analysis, described above.
# [2] = molecular target: T4, cynomolgus monkey (cyno) TIGIT protein (cynomolgus monkey, UniProt A0A7N9I9V4 89-209); assay: SPR, captured mAb
# T4 sequence (A0A7N9I9V4 entry or part of it): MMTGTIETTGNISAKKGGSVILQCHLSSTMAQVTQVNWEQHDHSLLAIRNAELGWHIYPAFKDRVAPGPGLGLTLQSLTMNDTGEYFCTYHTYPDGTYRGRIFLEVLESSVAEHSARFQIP
# Source text: (§1) To prevent unwanted pyroglutamate formation for clones 4.1A4, 4.1 D3, and 7.4A3 (also referred to as 1A4, 1 D3, and 4A3, respectively) and to resolve the issue of unpaired cysteine residues for clones 4.1A4 and 7.4A3, the following optimized anti-TIGIT antibody variants were generated: 4.1A4.C96S.Q1E, 4.1A4.C96Y.Q1E, 4.1 D3.Q1E, 7.4A3.C96S.Q1E, and 7.4A3.C96Y.Q1E (also referred to as 1A4.C96S.Q1E, 1A4.C96Y.Q1E, 1 D3.Q1E, 4A3.C96S.Q1E, and 4A3.C96Y.Q1E, respectively). As described below in Table 2, the affinities of these five optimized variants for human and cynomolgus monkey (cyno) TIGIT were then determined by Surface Plasmon Resonance (SRP) (BIACORE™ analysis) and compared to that of their respective parental clones.
# (§2) Briefly, a series S CM5 biosensor chip was activated with N-ethyl-N′-(3-dimethylaminopropyl)-carbodiimide hydrochloride (EDC) and N-hydroxysuccinimide (NHS) reagents according to the supplier's (GE Healthcare Biosciences, Piscataway, N.J.) instructions, and a human antibody capture kit was applied to couple goat anti-human Fc IgGs in order to achieve approximately 10,000 response units (RU) on each flow cell, followed by blocking un-reacted groups with 1M ethanolamine.
# (§3) (flow rate: 30 μl/min) with no regeneration between injections. The sensorgrams were recorded and evaluated by BIAcore™ T200 Evaluation Software (version 2.0) after subtraction of reference cell signal. Association rates (kₒₙ) and dissociation rates (koff) were calculated using a simple one-to-one Langmuir binding model. The equilibrium dissociation constant (KD) was calculated as the ratio koff/kₒₙ.
# [3] = molecular target: T4, cynomolgus monkey (cyno) TIGIT protein; assay: SPR, monovalent affinity
# [4] = molecular target: T3, cynomolgus TIGIT on CHO cells; assay: FACS blocking assay: labelled PVR-Fc (blocked ligand; text: cyPVR, scheme of FIG. 4A prints hPVR.Fc) on CHO cells expressing cyno TIGIT
# Experimental: (§4) These studies were further validated in CHO-TIGIT PVR blocking experiments in which TIGIT-expressing CHO cells were incubated with labeled PVR-Fc fusion protein in the presence of anti-TIGIT antibody or an human IgG1 control (FIG. 4A).
# [5] = molecular target: T3, cynomolgus TIGIT on CHO cells; assay: FACS blocking assay: labelled PVR-Fc (blocked ligand) on CHO cells expressing cyno TIGIT
# Experimental: as §4
# [6] = molecular target: T1, human TIGIT protein; assay: SPR, captured mAb
# Source text: as §1, §2, §3
# [7] = molecular target: T1, human TIGIT protein; assay: SPR, bivalent affinity
# [8] = molecular target: T4, cynomolgus monkey (cyno) TIGIT protein; assay: SPR, bivalent affinity
# [9] = molecular target: T1, human TIGIT protein; assay: SPR, monovalent affinity
# [10] = molecular target: T1, human TIGIT protein; assay: SPR, captured mAb; remark: listed apart in the source
# Experimental: as §2, §3
# (§5) The first humanized versions, h6B2, L1H1, h10A5.L1H1, h7E7, L1H1, and h15C8.L1H1, which contain both rat CDRs and framework residues at Vernier positions, and the fully humanized versions, h6B2.L2H5, h10A5.L4H4, h7E7.L5H9, and h15C8.L5H9, which contain only rat CDRs were subject to BIAcore affinity measurement by comparison with original rat antibodies, rat6B2, rat10A5, rat7E7 and rat 15C8. For binding affinity determinations of TIGIT antibodies against human TIGIT, cynomolgus monkey TIGIT and human alanine-scanned TIGIT mutants by single-cycle kinetics, Surface Plasmon Resonance (SRP) measurement with a BIACORE™-T200 instrument was used, as described above.
# [11] = molecular target: T4, cynomolgus monkey (cyno) TIGIT protein; assay: SPR, captured mAb; remark: listed apart in the source
# Experimental: as §2, §3, §5
# [12] = molecular target: T2, hTIGIT mutant H76A; assay: SPR (BIACORE) KD normalized to WT, N=2
# [13] = molecular target: T2, hTIGIT mutant H76A; assay: SPR (BIACORE), N=2
Binder,Kd [2] [nM],koff [2] [s⁻¹],kon [2] [M⁻¹ s⁻¹],Kd [3] [nM],Kd [9] [nM],Kd [10] [nM],koff [10] [s⁻¹],kon [10] [M⁻¹ s⁻¹],Kd [11] [nM],koff [11] [s⁻¹],kon [11] [M⁻¹ s⁻¹],other results
"4.1A4.C96S.Q1E (antibody, V domains shown, FR/HVR pieces in order; also called 4.1A4.Q1E.C96S) VH: EVQLVQSGSELKKPGASVKVSCKASGYTLTNYPMNWVRQAPGRGLEWMGWINTNTGSPAYAQDFTERFVFSLDTSVTTAYLQISSLKAEDTAVYYCARTAITSVYHFDYWGQGTLVTVSS VL: DIQLTQSPSFLSASVGDRVTITCRASQGISSYLAWYQQKPGKAPRVLIYGATTLQSGVPSRFSGSESGTEFTLTISSLQPEDLATYYCQKLNSHPSSFGQGTKVEIK",12.6,0.0169,1.34e+06,12.6,,,,,,,,EC50 (read off the curve) [1]: ~0.5 nM; IC50 (read off the curve) [4]: ~0.09 nM
"4.1A4.C96Y.Q1E (antibody, V domains shown, FR/HVR pieces in order; also called 4.1A4.Q1E.C96Y) VH: EVQLVQSGSELKKPGASVKVSCKASGYTLTNYPMNWVRQAPGRGLEWMGWINTNTGSPAYAQDFTERFVFSLDTSVTTAYLQISSLKAEDTAVYYCARTAITSVYHFDYWGQGTLVTVSS VL: DIQLTQSPSFLSASVGDRVTITCRASQGISSYLAWYQQKPGKAPRVLIYGATTLQSGVPSRFSGSESGTEFTLTISSLQPEDLATYYCQKLNSHPYSFGQGTKVEIK",,,,> 100,,,,,,,,binding result [5]: no binding (tested: about 20 nM)
"7.4A3 (antibody, V domains shown, OMT rat-derived human antibody; also called 7.4A3.Q1.C96) VH: QVQLVQSGSDLKKPGASVRVSCKASGYTFTSYPMNWVRQAPGHGLEWMGWINTNTGNPTYVQGFTGRFVFSLDTSVNTAYLQISSLKAEDTAVYFCARTGGHTYDSYAFDVWGQGTMVTVSS VL: DIQLTQSPTFLSASVGDRVTITCRASQVISSSLAWYQQNPGKAPKLLIYAASTLQSGVPSRFSGSGSGTEFTLTISSLQPEDFVTYYCQHLHGYPCNFGQGTKVEIK",2.09,0.000699,334000,1.6,3.6,,,,,,,EC50 (read off the curve) [1]: ~1 nM; Kd [6]: 3.44 nM; koff [6]: 0.00104 s⁻¹; kon [6]: 302000 M⁻¹ s⁻¹; Kd [7]: 0.098 nM; Kd [8]: ≤ 0.05 nM; IC50 (read off the curve) [4]: ~0.3 nM
"7.4A3.C96Y.Q1E (antibody, V domains shown, No entry is tied to this variant by name; built from 7.4A3 with the two named changes (Q1E in the heavy chain, C96Y in HVR-L3); also called 7.4A3.Q1E.C96Y) VH: EVQLVQSGSDLKKPGASVRVSCKASGYTFTSYPMNWVRQAPGHGLEWMGWINTNTGNPTYVQGFTGRFVFSLDTSVNTAYLQISSLKAEDTAVYFCARTGGHTYDSYAFDVWGQGTMVTVSS VL: DIQLTQSPTFLSASVGDRVTITCRASQVISSSLAWYQQNPGKAPKLLIYAASTLQSGVPSRFSGSGSGTEFTLTISSLQPEDFVTYYCQHLHGYPYNFGQGTKVEIK",35.6,0.014,395000,35.5,98.1,,,,,,,Kd [6]: 98 nM; koff [6]: 0.0365 s⁻¹; kon [6]: 372000 M⁻¹ s⁻¹
"h6B2.L1H1 (antibody, V domains shown, Humanized; FR/HVR pieces in order; also called h1.6B2.L1H1) VH: EVTLKESGPALVKPTQTLTLTCTFSGFSLSTYGMGVSWIRQPPGKALEWLASIWWNGNTYYNPSLKSRLTVTKDASKNQAVLTMTNMDPVDTATYYCAHTGGAVITWFAYWGQGTLVTVSS VL: DIQMTQSPSSLSASVGDRVTITCKASQSVGKNIAWYQQKPGKSPKLLIYYASNRYTGVPSRFSGSGSGTDFTFTISSLQPEDIATYYCQHIYNSPYPFGQGTKVEIK",,,,0.96,0.54,0.54,0.00253,4.67e+06,0.96,0.00118,1.23e+06,
"h15C8.L1H1 (antibody, V domains shown, First humanized version; FR/HVR pieces in order; also called h1.15C8.L1H1) VH: EVQLVQSGAEVKKPGASVKVSCKASGYTFTEHSIYWLRQAPGQRLEIIGRIDPKNGRTYFVDKFKNRATLTTDTSASTAYMELSSLRSEDTAVYFCARIDGFYFDFWGQGTLVTVSS VL: DIQLTQSPSFLSASVGDRVTITCKGSQNVNKYLVWYQQKPGKAPKLLIYSTDNLQSGIPSRFSGSGSGTEYTLTISSLQPEDFATYFCYQYNNGFTFGQGTKVEIK",,,,1.39,0.58,0.39,0.000357,922000,0.94,0.000464,493000,
"h7E7.L1H1 (antibody, V domains shown, First humanized version; FR/HVR pieces in order; also called h1.7E7.L1H1) VH: EVQLVQSGAEVKKPGASVKVSCKASGYTFTEYSIYWVRQAPGQRLEIIGRIDPKNGRTYYVDKFKNRATLTADTSASTAYMELSSLRSEDTAVYFCTRIYGFYFDFWGQGTLVTVSS VL: DIQLTQSPSFLSASVGDRVTITCKGSQNVNKYLVWYQQKPGKAPKLLIYNTDNLQSGIPSRFSGSGSGTEYTLTISSLQPEDFATYFCYQYNNGFTFGQGTKVEIK",,,,0.51,0.33,0.23,0.000476,2.06e+06,0.36,0.000152,418000,
"h7E7.L5aH9a (antibody, V domains shown, Final humanized 7E7; keeps rat VH I47 and VL Y71; FR/HVR pieces) VH: EVQLVQSGAEVKKPGASVKVSCKASGYTFTEYSIYWVRQAPGQRLEIMGRIDPKNGRTYYVDKFKNRVTITRDTSASTAYMELSSLRSEDTAVYYCARIYGFYFDFWGQGTLVTVSS VL: DIQLTQSPSFLSASVGDRVTITCKGSQNVNKYLVWYQQKPGKAPKLLIYNTDNLQSGVPSRFSGSGSGTEYTLTISSLQPEDFATYYCYQYNNGFTFGQGTKVEIK",,,,,,,,,0.31,0.000182,591000,Binding affinity drop vs. WT [12]: 2.5 fold; Kd [13]: 1 nM
"h10A5.L1H1 (antibody, V domains shown, Humanized; FR/HVR pieces in order; also called h1.10A5.L1H1) VH: EVTLKESGPALVKPTQTLTLTCTFSGFSLTTYGMGVSWIRQPPGKALEWLASIWWNGNTYYNPSLRSRLTVTKDTSKNQAVLTMTNMDPVDTATYYCAHTGGAVITWFAYWGQGTLVTVSS VL: EIVMTQSPATLSVSPGERATLSCKASQSVGKNIAWYQQKPGQSPRLLIYYASNRYTGVPARFSGSGSGTEFTLTISSLQSEDFAVYYCQHIYNSPYPFGQGTKVEIK",,,,0.86,0.52,0.52,0.00238,4.57e+06,0.86,0.00127,1.47e+06,
